Measured values reported in patent US20200062844A1 (Regeneron, published 2020).

Columns and labels:
[1] = target: T1, human FcεR1α expressed on cells (human, UniProt P12319 26-257); assay: cell-based or functional assay
T1 sequence (looked up): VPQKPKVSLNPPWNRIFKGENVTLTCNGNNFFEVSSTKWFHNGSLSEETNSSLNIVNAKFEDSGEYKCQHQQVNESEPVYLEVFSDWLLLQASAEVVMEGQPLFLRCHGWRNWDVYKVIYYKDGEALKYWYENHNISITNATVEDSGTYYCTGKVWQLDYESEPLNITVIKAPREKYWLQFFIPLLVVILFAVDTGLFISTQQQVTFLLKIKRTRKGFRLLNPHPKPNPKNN

[2] = target: T2, human CD3 expressed in Jurkat cells (human, UniProt P07766 23-207; P04234 22-171; P20963 22-164; P09693 23-182); assay: cell-based or functional assay
T2 sequence (P07766 23-207 limits assumed, chain 1 of 4): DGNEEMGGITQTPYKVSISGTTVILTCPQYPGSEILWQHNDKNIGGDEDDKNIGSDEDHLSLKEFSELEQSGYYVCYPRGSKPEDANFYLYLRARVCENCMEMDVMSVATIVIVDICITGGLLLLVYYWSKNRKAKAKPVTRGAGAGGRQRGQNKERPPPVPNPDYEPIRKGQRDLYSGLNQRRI
T2 sequence (P04234 22-171 limits assumed, chain 2 of 4): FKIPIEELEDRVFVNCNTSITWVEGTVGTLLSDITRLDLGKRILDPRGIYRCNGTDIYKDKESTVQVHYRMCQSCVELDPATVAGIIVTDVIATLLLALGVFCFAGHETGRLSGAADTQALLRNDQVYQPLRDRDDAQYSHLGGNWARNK
T2 sequence (P20963 22-164 limits assumed, chain 3 of 4): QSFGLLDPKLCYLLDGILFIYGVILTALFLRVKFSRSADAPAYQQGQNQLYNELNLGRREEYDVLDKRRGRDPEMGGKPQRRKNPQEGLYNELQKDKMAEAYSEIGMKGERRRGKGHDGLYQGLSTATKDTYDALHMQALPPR
T2 sequence (P09693 23-182 limits assumed, chain 4 of 4): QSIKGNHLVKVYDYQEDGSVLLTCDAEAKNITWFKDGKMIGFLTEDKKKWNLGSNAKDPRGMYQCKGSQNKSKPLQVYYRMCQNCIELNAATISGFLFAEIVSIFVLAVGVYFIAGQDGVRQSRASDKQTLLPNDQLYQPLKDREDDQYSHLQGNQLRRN

mfFcεR1α.MMH [3] = target: T3, mfFcεR1α.MMH (cynomolgus (Macaca fascicularis)); assay: SPR (Biacore 8k), antibody captured on anti-human Fc, mfFcεR1α.MMH injected, 37°C
T3 construct: also called mfFceR1a.MMH; ectodomain of cynomolgus FcεR1α with C-term myc-myc-6×His tag
T3 chain: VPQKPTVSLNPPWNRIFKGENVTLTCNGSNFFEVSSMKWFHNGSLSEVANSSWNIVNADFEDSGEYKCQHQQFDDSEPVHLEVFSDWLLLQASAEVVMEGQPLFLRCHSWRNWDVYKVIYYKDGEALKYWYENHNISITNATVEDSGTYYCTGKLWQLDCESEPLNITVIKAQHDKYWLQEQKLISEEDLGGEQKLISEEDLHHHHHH
Protocol: (§1) Equilibrium dissociation constants (KD) for human or cynomolgus FcεR1α ectodomain binding to purified anti-FcεR1α monoclonal antibodies (mAbs) and CD3×FcεR1α bispecific antibodies (bsAbs) were determined using a real-time surface plasmon resonance biosensor (SPR-Biacore), Biacore 8k. All binding studies were performed in 10 mM HEPES, 150 mM NaCl, 3 mM EDTA, and 0.05% v/v surfactant Tween-20, pH 7.4 (HBS-ET) running buffer at 25° C. and 37° C.
(§2) The Biacore CM4 sensor surface was first derivatized by amine coupling with a monoclonal mouse anti-human Fc antibody to capture approximately 500-900 RUs anti-FcεR1α monoclonal antibodies or anti-CD3×FcεR1α bispecific monoclonal antibodies. 1 RU (response unit) represents 1 pg of protein per mm², as defined by the manufacturer. The ectodomain of human and cynomolgus FcεR1α reagents were expressed with a C-term myc-myc-6×His tag-hFcεR1α.MMH (SEQ ID NO: 57) and mfFcεR1α.MMH (SEQ ID NO: 58). Different concentrations of FcεR1α reagents were prepared in HBS-ET running buffer (600 nM-7.4 nM; serially diluted by 3-fold) and injected over anti-human Fc captured anti-FcεR1α monoclonal antibodies or anti-CD3×FcεR1α bispecific monoclonal antibodies surfaces for 1 minute at a flow rate of 30 μL/minute. The dissociation of bound FcεR1α reagents was monitored for 4 minutes in HBS-ET running buffer. Association (kₐ) and dissociation (kd) rate constants were determined by fitting the real-time binding sensorgrams to a 1:1 binding model with mass transport limitation using Biacore 8k evaluation software. Binding dissociation equilibrium constants (KD) and dissociative half-lives (t½) were calculated from the kinetic rate constants as: […]

hFcεR1α.MMH [4] = target: T4, hFcεR1α.MMH (human); assay: SPR (Biacore 8k), antibody captured on anti-human Fc, hFcεR1α.MMH injected, 37°C
T4 construct: also called ectodomain of human FcεR1α with C-term myc-myc-6×His tag
T4 chain: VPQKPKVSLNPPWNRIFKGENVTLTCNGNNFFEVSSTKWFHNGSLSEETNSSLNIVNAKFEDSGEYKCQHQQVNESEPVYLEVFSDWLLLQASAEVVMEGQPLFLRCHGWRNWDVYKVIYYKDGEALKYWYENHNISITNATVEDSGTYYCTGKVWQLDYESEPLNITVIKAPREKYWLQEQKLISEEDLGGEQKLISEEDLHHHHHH
Protocol: as §1, §2

[5] = target: T1, human FcεR1α expressed on cells; assay: flow cytometry, 70 nM antibody on HEK293/hFcεR1α/hFcεR1β/hFcεR1γ cells, No IgE
Protocol: (§3) For flow cytometry analysis, HEK293, HEK293/hFcεR1α/hFcεR1β/hFcεR1γ and HEK293/mf FcεR1α/hFcεR1β/hFcεR1γ cells were collected after dissociation using Enzyme Free Dissociation Buffer (Millipore Cat# S-004), and the cells were pre-incubated with or without 70 nM human IgE, for 30 minutes on ice in FACS buffer (PBS, without Ca⁺⁺ and Mg⁺⁺, (Irvine Scientific, Cat#9240) containing 2% FBS). Jurkat/NFAT-luc cells were also collected. The antibodies at the concentration of 70 nM were then added to 1×10⁶ cells/well of each cell type at 4° C. for 30 minutes. […] Cells were fixed using BD CytoFix™ (Becton Dickinson, Cat. #554655) and analyzed on Accuri™ C6 (BD) or CytoFLEX Flow cytometer (Beckman Coulter). Unstained and secondary antibody alone controls were also tested for all cell lines and a sample was evaluated for viability using the Far Red Fluo viability dye (Thermo Fisher, Cat#L10120) according to the manufacturer's protocol. The results were analyzed using FlowJo software (version 10.0.8, FlowJo) to determine the geometric means of fluorescence for viable cells and the binding ratio was calculated with the mean fluorescence intensity (MFI) of the experimental condition normalized by the MFI of the unstained respective cells.

[6] = target: T1, human FcεR1α expressed on cells; assay: cell-based or functional assay; remark: listed apart in the source
[7] = target: T5, monkey (cynomolgus) FcεR1α expressed on cells (cynomolgus); assay: flow cytometry, 70 nM antibody on HEK293/mfFcεR1α/hFcεR1β/hFcεR1γ cells, No IgE
T5 construct: range 4-260; On HEK293 cells, co-expressed with human FcεR1β and FcεR1γ; also called mfFcεR1α; HEK293/mfFcεR1α/hFcεR1β/hFcεR1γ cells
Protocol: as §3

hFcεR1α.MMH [8] = target: T4, hFcεR1α.MMH; assay: SPR (Biacore 8k), antibody captured on anti-human Fc, hFcεR1α.MMH injected, 25°C
Protocol: as §1, §2

[9] = target: T1, human FcεR1α expressed on cells; assay: flow cytometry, 70 nM antibody on HEK293/hFcεR1α/hFcεR1β/hFcεR1γ cells pre-incubated with 70 nM human IgE
Protocol: as §3

mfFcεR1α.MMH [10] = target: T3, mfFcεR1α.MMH; assay: SPR (Biacore 8k), antibody captured on anti-human Fc, mfFcεR1α.MMH injected, 25°C
Protocol: as §1, §2

[11] = target: T5, monkey (cynomolgus) FcεR1α expressed on …; assay: flow cytometry, 70 nM antibody on HEK293/mfFcεR1α/hFcεR1β/hFcεR1γ cells pre-incubated with 70 nM human IgE
Protocol: as §3

[12] = target: T2, human CD3 expressed in Jurkat cells; assay: flow cytometry, 70 nM antibody on Jurkat/NFAT-luc cells, No IgE
Protocol: as §3

B1: bsAb24921D (bispecific antibody, human IgG4 S228P, kappa)
heavy 1: QVQVQESGPRLVKPSETLSLTCTVSGGSMSSYYWIWIRQPPGKELEWIGYIYYSGSTNYNPSLKSRATISVDTSKNQFSLNLNSVTAADTAVYYCARRNNWNYVRAFDIWGQGTMVTVSSASTKGPSVFPLAPCSRSTSESTAALGCLVKDYFPEPVTVSWNSGALTSGVHTFPAVLQSSGLYSLSSVVTVPSSSLGTKTYTCNVDHKPSNTKVDKRVESKYGPPCPPCPAPPVAGPSVFLFPPKPKDTLMISRTPEVTCVVVDVSQEDPEVQFNWYVDGVEVHNAKTKPREEQFNSTYRVVSVLTVLHQDWLNGKEYKCKVSNKGLPSSIEKTISKAKGQPREPQVYTLPPSQEEMTKNQVSLTCLVKGFYPSDIAVEWESNGQPENNYKTTPPVLDSDGSFFLYSRLTVDKSRWQEGNVFSCSVMHEALHNHYTQKSLSLSLGK
heavy 2: EVQLVESGGGLVQPGRSLRLSCAASGFTFDDYSMHWVRQAPGKGLEWVSGISWNSGSIGYADSVKGRFTISRDNAKNSLYLQMNSLRAEDTALYYCAKYGSGYGKFYYYGMDVWGQGTTVTVSSASTKGPSVFPLAPCSRSTSESTAALGCLVKDYFPEPVTVSWNSGALTSGVHTFPAVLQSSGLYSLSSVVTVPSSSLGTKTYTCNVDHKPSNTKVDKRVESKYGPPCPPCPAPPVAGPSVFLFPPKPKDTLMISRTPEVTCVVVDVSQEDPEVQFNWYVDGVEVHNAKTKPREEQFNSTYRVVSVLTVLHQDWLNGKEYKCKVSNKGLPSSIEKTISKAKGQPREPQVYTLPPSQEEMTKNQVSLTCLVKGFYPSDIAVEWESNGQPENNYKTTPPVLDSDGSFFLYSRLTVDKSRWQEGNVFSCSVMHEALHNRFTQKSLSLSPGK
light: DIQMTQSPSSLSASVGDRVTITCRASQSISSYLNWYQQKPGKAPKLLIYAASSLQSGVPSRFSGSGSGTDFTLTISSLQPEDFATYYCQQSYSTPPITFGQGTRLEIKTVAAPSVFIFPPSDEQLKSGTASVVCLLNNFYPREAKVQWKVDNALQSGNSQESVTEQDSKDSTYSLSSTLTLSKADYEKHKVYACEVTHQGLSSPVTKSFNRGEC
notes: IgG4 Fc domain; two distinct heavy chains with a common light chain; also called anti-FcεR1α×CD3 bispecific antibody; FcεR1α × hCD3
With B1 the “EC80, cleaved caspase 3+ cleaved PARP+ HEK293/hFcεR1α/hFcεR1β/hFcεR1γ target cells with activated CD8+ T cells” value [1] was 0.0613 nM, the “Maximum percent apoptotic cells, HEK293/hFcεR1α/hFcεR1β/hFcεR1γ target cells with activated CD8+ T cells” value [1] was 55.8% and the “EC50 [M], NFAT-luciferase in Jurkat/NFAT-luc with HEK293/hFcεR1α/hFcεR1β/hFcεR1γ cells, 10 nM IgE” value [2] was 1.1e-09 M. For the same binder, the “EC50 [M], NFAT-luciferase in Jurkat/NFAT-luc with HEK293/hFcεR1α/hFcεR1β/hFcεR1γ cells, No IgE” value [2] was 2.3e-10 M, the “Fold Activation, Jurkat/NFAT-luc with HEK293/hFcεR1α/hFcεR1β/hFcεR1γ cells, 10 nM IgE” value [2] was 27 fold and the “Fold Activation, Jurkat/NFAT-luc with HEK293/hFcεR1α/hFcεR1β/hFcεR1γ cells, No IgE” value [2] was 24 fold. The “600 nM mfFceR1a.MMH Bound (RU)” value (mfFcεR1α.MMH [3]) was 37 RU, the Kd (mfFcεR1α.MMH [3]) was 520 nM and the koff (mfFcεR1α.MMH [3]) was 0.0445 s⁻¹. For the same binder, the kon (mfFcεR1α.MMH [3]) was 85600 M⁻¹ s⁻¹, the t½ (mfFcεR1α.MMH [3]) was 15.6 s and the “600 nM hFcεR1α.MMH Bound (RU)” value (hFcεR1α.MMH [4]) was 40 RU. It also gave a Kd (hFcεR1α.MMH [4]) of 977 nM, a koff (hFcεR1α.MMH [4]) of 0.0934 s⁻¹ and a kon (hFcεR1α.MMH [4]) of 95600 M⁻¹ s⁻¹. For the same binder, the t½ (hFcεR1α.MMH [4]) was 7.2 s, the “Binding Ratio (MFI of Treated/MFI of Unstained)” value [5] was 253 and the “EC50, decrease of primary human basophils within PBMC with activated CD8+ T cells” value [6] was 4 nM. The “Maximum percent basophil decrease, PBMC with activated CD8+ T cells” value [6] was 90.9%, the “Binding Ratio (MFI of Treated/MFI of Unstained)” value [7] was 169 and the “600 nM hFcεR1α.MMH Bound (RU)” value (hFcεR1α.MMH [8]) was 69 RU. It also gave a Kd (hFcεR1α.MMH [8]) of 274 nM, a koff (hFcεR1α.MMH [8]) of 0.0212 s⁻¹ and a kon (hFcεR1α.MMH [8]) of 77400 M⁻¹ s⁻¹. For the same binder, the t½ (hFcεR1α.MMH [8]) was 32.4 s, the “Binding Ratio (MFI of Treated/MFI of Unstained)” value [9] was 295 and the “600 nM mfFceR1a.MMH Bound (RU)” value (mfFcεR1α.MMH [10]) was 60 RU. It also gave a Kd (mfFcεR1α.MMH [10]) of 256 nM, a koff (mfFcεR1α.MMH [10]) of 0.0161 s⁻¹ and a kon (mfFcεR1α.MMH [10]) of 62900 M⁻¹ s⁻¹. For the same binder, the t½ (mfFcεR1α.MMH [10]) was 42 s, the “Binding Ratio (MFI of Treated/MFI of Unstained)” value [11] was 284 and the “Binding Ratio (MFI of Treated/MFI of Unstained)” value [12] was 94.
